The values that follow come from US20230212587A1, “Mutant Hydroxyphenylpyruvate Dioxygenase Polypeptide, Encoding Gene Thereof and Use Therefor” (Beijing Dabeinong Biotechnology Co., Ltd., priority 2019, published 2023).

The test system of the assay is Arabidopsis thaliana T1 plants. The assay can be described thus: Topramezone tolerance of transgenic Arabidopsis thaliana T1 plants (pesticide damage grade by bleached leaf area, score, resistance evaluation). The conditions noted are these: for tolerance to topramezone, in words: Arabidopsis thaliana T1 plants sprayed with topramezone; for Grade 0 / Grade 1 / Grade 2 / Grade 3 / score / Resistance Grade: non-372 position mutants; for Grade 0 / Grade 1 / Grade 2 / Grade 3: number of plants (of 20) in this grade; for score / Scores: score for pesticide damage 0-100; for Classification and statistics of pesticide damage grade Grade 0 / Classification and statistics of pesticide damage grade Grade 1 / Classification and statistics of pesticide damage grade Grade 2 / Classification and statistics of pesticide damage grade Grade 3 / Scores / Resistance evaluation: HPPDs from different species, 7 DAT; for Classification and statistics of pesticide damage grade Grade 0 / Classification and statistics of pesticide damage grade Grade 1 / Classification and statistics of pesticide damage grade Grade 2 / Classification and statistics of pesticide damage grade Grade 3: number of plants (of 16) in this grade. The format is in vivo. Put shortly: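 Herbicide tolerance was judged per plant on a bleaching scale (grade 0 no bleaching to grade 3 fully bleached) 7 DAT. Topramezone doses were 0, 25, 50 and 100 g ai/ha on 18-day-old T1 and wild-type plants.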

B1: AsHPPDm-L359W: Avena sativa HPPD mutant L359W, SEQ ID NO: 422 (protein)
chain: MPPTPATATGAAAAAVTPEHAARSFPRVVRVNPRSDRFPVLSFHHVELWCADAASAAGRFSFALGAPLAARSDLSTGNSAHASLLLRSGALAFLFTAPYAPPPQEAATAAATASIPSFSADAARTFAAAHGLAVRSVGVRVADAAEAFRVSVAGGARPAFAPADLGHGFGLAEVELYGDVVLRFVSYPDETDLPFLPGFERVSSPGAVDYGLTRFDHVVGNVPEMAPVIDYMKGFLGFHEFAEFTAEDVGTTESGLNSVVLANNSEAVLLPLNEPVHGTKRRSQIQTYLEYHGGPGVQHIALASNDVLRTLREMRARTPMGGFEFMAPPQAKYYEGVRRIAGDVLSEEQIKECQELGVWVDRDDQGVLLQIFTKPVGDRPTFFLEMIQRIGCMEKDEVGQEYQKGGCGGFGKGNFSELFKSIEDYEKSLEVKQSVVAQKS
modifications: AsHPPDm-L359W Amino Acid Sequence
As for B1, the “tolerance to topramezone, in words” value is listed as “no significant difference”. Where the note is “topramezone 25 g ai/ha (1x)”, the “Grade 0” value is reported as 0, the “Grade 1” value came out at 0, the “Grade 2” value came to 2 and the “Grade 3” value came to 18. In addition, under “topramezone 25 g ai/ha (1x)”, the score came out at 97 and the “Resistance Grade” value is reported as “non-resistant (non-resistant plants (scores 68-100))”. Under “topramezone 100 g ai/ha (4x)”, the “Grade 0” value was determined as 0, the “Grade 1” value is listed as 0, the “Grade 2” value stood at 0 and the “Grade 3” value is given as 20. In addition, under “topramezone 100 g ai/ha (4x)”, the score stood at 100 and the “Resistance Grade” value was “non-resistant (non-resistant plants (scores 68-100))”.

B2: AsHPPDm-F415A: Avena sativa HPPD mutant F415A, SEQ ID NO: 424 (protein)
chain: MPPTPATATGAAAAAVTPEHAARSFPRVVRVNPRSDRFPVLSFHHVELWCADAASAAGRFSFALGAPLAARSDLSTGNSAHASLLLRSGALAFLFTAPYAPPPQEAATAAATASIPSFSADAARTFAAAHGLAVRSVGVRVADAAEAFRVSVAGGARPAFAPADLGHGFGLAEVELYGDVVLRFVSYPDETDLPFLPGFERVSSPGAVDYGLTRFDHVVGNVPEMAPVIDYMKGFLGFHEFAEFTAEDVGTTESGLNSVVLANNSEAVLLPLNEPVHGTKRRSQIQTYLEYHGGPGVQHIALASNDVLRTLREMRARTPMGGFEFMAPPQAKYYEGVRRIAGDVLSEEQIKECQELGVLVDRDDQGVLLQIFTKPVGDRPTFFLEMIQRIGCMEKDEVGQEYQKGGCGGFGKGNASELFKSIEDYEKSLEVKQSVVAQKS
modifications: AsHPPDm-F415A Amino Acid Sequence
Consider B2, for which the “tolerance to topramezone, in words” value is on record as “no significant difference”. Also, where the note is “topramezone 25 g ai/ha (1x)”, the “Grade 0” value amounted to 0, the “Grade 1” value is reported as 6, the “Grade 2” value is 12 and the “Grade 3” value worked out at 2. Besides, for the setting “topramezone 25 g ai/ha (1x)”, the score came to 60 and the “Resistance Grade” value is given as “poorly resistant (poorly resistant plants (scores 34-67))”. Besides, under “topramezone 100 g ai/ha (4x)”, the “Grade 0” value is 0, the “Grade 1” value turned out to be 0, the “Grade 2” value was found to be 0 and the “Grade 3” value came to 20. Moreover, under “topramezone 100 g ai/ha (4x)”, the score amounted to 100 and the “Resistance Grade” value is listed as “non-resistant (non-resistant plants (scores 68-100))”.

B3: NtHPPDm-F372A-02: Nicotiana tabacum HPPD mutant F372A, SEQ ID NO: 114 (protein)
chain: MGKLETVTTTSAAAADDSSELTTNFKLVGFKNFIRTNPRSDFFSVKSFHHIEFWCGDATNTARRFSWSLGMPIAAKSDLSTGNSVHASYLLRPVSGSLQFLFTAPYSPSISTPSSAAIPSFSTSTHRSFTTTHGLGVRAVALEVENAYTAFSASVSRGAKPMFEPVTIDEQVAMAEVHLYGDVVLRFVSYLKDADNLVFLPGFEAMDETASYKELDYGIRRLDHAVGNVPELGPVVDYIKRFTGFHEFAEFTAEDVGTAESGLNSMVLANNDETVLLPLNEPVYGTKRKSQIQTYLEHNEGAGVQHLALVTEDIFKTLTEMRKRSGVGGFEFMPSPPPTYYKNLKNRAGDVLSDEQILACEELGILVDRDDQGTLLQIATKPVGDRPTIFIEIIQRIGCMLKDGKGQVYQKGGCGGFGKGNFSELFRSIEEYEKTLEAKQANQVAAA
modifications: NtHPPDm-F372A Amino Acid Sequence
On to B3, for which, where the note is “topramezone 25 g ai/ha (1x)”, the “Classification and statistics of pesticide damage grade Grade 0” value was 0; the “Classification and statistics of pesticide damage grade Grade 1” value stood at 6; the “Classification and statistics of pesticide damage grade Grade 2” value was 10; the “Classification and statistics of pesticide damage grade Grade 3” value was 0. Also, for the setting “topramezone 25 g ai/ha (1x)”, the Scores is 54 and the Resistance evaluation entry is listed as “poorly resistant (poorly resistant plants (scores 34-67))”. Moreover, for the setting “topramezone 100 g ai/ha (4x)”, the “Classification and statistics of pesticide damage grade Grade 0” value was found to be 0; the “Classification and statistics of pesticide damage grade Grade 1” value worked out at 0; the “Classification and statistics of pesticide damage grade Grade 2” value was determined as 0; the “Classification and statistics of pesticide damage grade Grade 3” value is listed as 16. Where the note is “topramezone 100 g ai/ha (4x)”, the Scores was 100 and the Resistance evaluation result is listed as “non-resistant (non-resistant plants (scores 68-100))”.

B4: CsHPPD-02: native Cucumis sativus HPPD, SEQ ID NO: 117 (protein, listed as Cucumis sativus)
chain: MGKEADFPRAPSEATDGGATASQSEFELQGFDNFIRTNPKSDRFKVKRFHHIEFWCTDATNVARRFSWGLGMQIVAKSDLSTGNMTHASYLLRSGHLCFLFTAPYSPSIAAAQNLTPASTASIPSFDHSVCRSFSGTHGFGARAIALEVEDAEIAFRTSVAHGAKPSCPPIVLENRAVLSEVHLYGDVVLRYISYKNPVSGDNGENKPDEWFLPKFEAMEETASFPLDFGIRRLDHAVGNVPELGPAVSYLKGFTGFHEFAEFTAEDVGTSESGLNSMVLANNEEMVLLPINEPVFGTKRKSQIQTYLEHNEGAGVQHLALMSEDIFRTLREMRKRSSVGGFEFMPSPPPTYYKNLKSRAGDVLTDEQIKECEELGILVDKDDQGTLLQIFTKPVGDRPTIFIEIIQRLGCMMKDEEGKAFQKGGCGGFGKGNFSELFKSIEEYEKTLEAKRVSE
modifications: CsHPPD Amino Acid Sequence
For B4, where the note is “topramezone 25 g ai/ha (1x)”, the “Classification and statistics of pesticide damage grade Grade 0” value was 0; the “Classification and statistics of pesticide damage grade Grade 1” value stood at 0; the “Classification and statistics of pesticide damage grade Grade 2” value is given as 0; the “Classification and statistics of pesticide damage grade Grade 3” value is 16. For the setting “topramezone 25 g ai/ha (1x)”, the Scores was determined as 100 and the Resistance evaluation entry is recorded as “non-resistant (non-resistant plants (scores 68-100))”. Moreover, for the setting “topramezone 100 g ai/ha (4x)”, the “Classification and statistics of pesticide damage grade Grade 0” value is on record as 0; the “Classification and statistics of pesticide damage grade Grade 1” value is given as 0; the “Classification and statistics of pesticide damage grade Grade 2” value was 0; the “Classification and statistics of pesticide damage grade Grade 3” value is 16. Moreover, for the setting “topramezone 100 g ai/ha (4x)”, the Scores stood at 100 and the Resistance evaluation entry was “non-resistant (non-resistant plants (scores 68-100))”.

B5: CsHPPDm-F372A-02: Cucumis sativus HPPD mutant F372A, SEQ ID NO: 120 (protein)
chain: MGKEADFPRAPSEATDGGATASQSEFELQGFDNFIRTNPKSDRFKVKRFHHIEFWCTDATNVARRFSWGLGMQIVAKSDLSTGNMTHASYLLRSGHLCFLFTAPYSPSIAAAQNLTPASTASIPSFDHSVCRSFSGTHGFGARAIALEVEDAEIAFRTSVAHGAKPSCPPIVLENRAVLSEVHLYGDVVLRYISYKNPVSGDNGENKPDEWFLPKFEAMEETASFPLDFGIRRLDHAVGNVPELGPAVSYLKGFTGFHEFAEFTAEDVGTSESGLNSMVLANNEEMVLLPINEPVFGTKRKSQIQTYLEHNEGAGVQHLALMSEDIFRTLREMRKRSSVGGFEFMPSPPPTYYKNLKSRAGDVLTDEQIKECEELGILVDKDDQGTLLQIATKPVGDRPTIFIEIIQRLGCMMKDEEGKAFQKGGCGGFGKGNFSELFKSIEEYEKTLEAKRVSE
modifications: CsHPPDm-F372A Amino Acid Sequence
For B5, under “topramezone 25 g ai/ha (1x)”, the “Classification and statistics of pesticide damage grade Grade 0” value was determined as 0; the “Classification and statistics of pesticide damage grade Grade 1” value came out at 0; the “Classification and statistics of pesticide damage grade Grade 2” value came out at 16; the “Classification and statistics of pesticide damage grade Grade 3” value is recorded as 0. Under “topramezone 25 g ai/ha (1x)”, the Scores is recorded as 67 and the Resistance evaluation result is reported as “poorly resistant (poorly resistant plants (scores 34-67))”. In addition, for the setting “topramezone 100 g ai/ha (4x)”, the “Classification and statistics of pesticide damage grade Grade 0” value was found to be 0; the “Classification and statistics of pesticide damage grade Grade 1” value is 0; the “Classification and statistics of pesticide damage grade Grade 2” value worked out at 0; the “Classification and statistics of pesticide damage grade Grade 3” value turned out to be 16. Also, under “topramezone 100 g ai/ha (4x)”, the Scores was determined as 100 and the Resistance evaluation result is recorded as “non-resistant (non-resistant plants (scores 68-100))”.
